What was measured:
[1] = molecular target: BCMA expressed on K562 Very High-BCMA cells (UniProt Q02223); assay: cell-based or functional assay
[2] = molecular target: BCMA protein (UniProt Q02223); assay: cell-based or functional assay

B1: anti-BCMA CAR (co-stimulatory domain not specified for the experiment) (protein, part only; not given: CAR hinge, transmembrane, signaling domains, part only)
chain, part: DIVLTQSPPSLAMSLGKRATISCRASESVTILGSHLIHWYQQKPGQPPTLLIQLASNVQTGVPARFSGSGSRTDFTLTIDPVEEDDVAVYYCLQSRTIPRTFGGGTKLEIKGSTSGSGKPGSGEGSTKGQIQLVQSGPELKKPGETVKISCKASGYTFTDYSINWVKRAPGKGLKWMGWINTETREPAYAYDFRGRFAFSLETSASTAYLQINNLKYEDTATYFCALDYSYAMDYWGQGTSVTVSS
A CD107a+ cells (%), degranulation after 18 hours [1] of 3.82% and a CD107a+ cells (%), degranulation after 18 hours [2] of 22.2% were found for B1 in this work.

Source: US20210228629A1
